{
  "source": "patent US20250152742A1",
  "about": "“COMPOSITIONS AND METHODS FOR NEUROLOGICAL DISEASES” (Trames Bio, Inc., priority 2022, published 2025)",
  "test_system": "engineered chimeric receptor SEQ ID NO: 33 and its mutants (human α7-nAChR ligand binding domain / human GlyRα1 ion pore domain) in Lenti-X 293T cells",
  "test": "YFP fluorescence quenching anion reporter plate reader assay (percent quench, EC50)",
  "assay_type": "cell-based",
  "conditions": "for YFP fluorescence quenching using CNL001 (percent quench): receptor named in row; for YFP fluorescence quenching using Varenicline, 3 nM var: ligand Varenicline 3 nM; for YFP fluorescence quenching using Varenicline, 30 nM var: ligand Varenicline 30 nM; for YFP fluorescence quenching using Varenicline, 300 nM var: ligand Varenicline 300 nM; for YFP fluorescence quenching using Varenicline, 500 nM var: ligand Varenicline 500 nM; for YFP fluorescence quenching using Varenicline, 1 uM var: ligand Varenicline 1 uM",
  "method_in_brief": "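Percent quench compares mean YFP signal over the final 10 s with the 15 s baseline before ligand, added in iodide-containing extracellular solution (pH 7.2). Cells were LX293T carrying a YFP anion reporter, transiently transfected with the channel construct; plates were preincubated 30 min at 37 °C.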",
  "data": [
    {"molecule": "CODA377: engineered receptor: S172D in SEQ ID NO: 33 (protein, synthetic sequence of chimeric LGIC) MRCSPGGVWLALAASLLHVSLQGEFQRKLYKELVKNYNPLERPVANDSQPLTVYFSLSLLQIMDVDEKNQVLTTNIWLQMSWTDHYLQWNVSEYPGVKTVRFPDGQIWKPDILLYNSADERFDATFHTNVLVNSSGHCQYLPPGIFKSSCPMDLKNFPMDVQTCKLKFGSWDYGGWSLDLQMQEADISGYIPNGEWDLVGIPGKRSERFYECCKEPYPDVTFTVTMRRRMGYYLIQMYIPSLLIVILSWISFWINMDAAPARVGLGITTVLTMTTQSSGSRASLPKVSYVKAIDIWMAVCLLFVFSALLEYAAVNFVSRQHKELLRFRRKRRHHKSPMLNLFQEDEAGEGRFNFSAYGMGPACLQAKDGISVKGANNSNTTNPPPAPSKSPEEMRKLFIQRAKKIDKISRIGFPMAFLIFNMFYWIIYKIVRREDVHNQ", "values": [
      {"measurement": "YFP fluorescence quenching using CNL001 (percent quench)", "setting": "1 nM CNL001, first column so headed", "result": 67.544, "unit": "%"},
      {"measurement": "YFP fluorescence quenching using CNL001 (percent quench)", "setting": "1 nM CNL001, second column so headed", "result": 74.209, "unit": "%"},
      {"measurement": "YFP fluorescence quenching using TC-5619/Bradanicline (percent quench)", "setting": "1 nM brd (TC-5619/Bradanicline)", "result": 0.77, "unit": "%"},
      {"measurement": "YFP fluorescence quenching using TC-5619/Bradanicline (percent quench)", "setting": "3 nM brd (TC-5619/Bradanicline)", "result": "−4.59", "unit": "%"},
      {"measurement": "YFP fluorescence quenching using CNL001 (percent quench)", "setting": "10 nM CNL001, first column so headed", "result": 74.346, "unit": "%"},
      {"measurement": "YFP fluorescence quenching using CNL001 (percent quench)", "setting": "10 nM CNL001, second column so headed", "result": 75.816, "unit": "%"},
      {"measurement": "YFP fluorescence quenching using TC-5619/Bradanicline (percent quench)", "setting": "10 nM brd (TC-5619/Bradanicline)", "result": 0.06, "unit": "%"},
      {"measurement": "YFP fluorescence quenching using TC-6683 (percent quench)", "setting": "30 nM TC-6683", "result": "−20.23", "unit": "%"},
      {"measurement": "YFP fluorescence quenching using TC-5619/Bradanicline (percent quench)", "setting": "30 nM brd (TC-5619/Bradanicline)", "result": "−10.48", "unit": "%"},
      {"measurement": "YFP fluorescence quenching using CNL001 (percent quench)", "setting": "50 nM CNL001, first column so headed", "result": 77.068, "unit": "%"},
      {"measurement": "YFP fluorescence quenching using CNL001 (percent quench)", "setting": "50 nM CNL001, second column so headed", "result": 76.99, "unit": "%"},
      {"measurement": "YFP fluorescence quenching using ABT-126 (percent quench)", "setting": "50 nM abt (ABT-126)", "result": "−1.53", "unit": "%"},
      {"measurement": "YFP fluorescence quenching using CNL001 (percent quench)", "setting": "100 nM CNL001, first column so headed", "result": 79.352, "unit": "%"},
      {"measurement": "YFP fluorescence quenching using CNL001 (percent quench)", "setting": "100 nM CNL001, second column so headed", "result": 77.865, "unit": "%"},
      {"measurement": "YFP fluorescence quenching (percent quench)", "setting": "100 nM CNL002", "result": 59.35, "unit": "%"},
      {"measurement": "YFP fluorescence quenching using ABT-126 (percent quench)", "setting": "100 nM abt (ABT-126)", "result": 18.18, "unit": "%"},
      {"measurement": "YFP fluorescence quenching using AZD-0328 (percent quench)", "setting": "100 nM azd0328", "result": 65.04, "unit": "%"},
      {"measurement": "YFP fluorescence quenching using TC-5619/Bradanicline (percent quench)", "setting": "100 nM brd (TC-5619/Bradanicline)", "result": 0.25, "unit": "%"},
      {"measurement": "YFP fluorescence quenching using TC-6683 (percent quench)", "setting": "300 nM TC-6683", "result": "−13.94", "unit": "%"},
      {"measurement": "YFP fluorescence quenching using ABT-126 (percent quench)", "setting": "300 nM abt (ABT-126)", "result": 59.15, "unit": "%"},
      {"measurement": "YFP fluorescence quenching using AZD-0328 (percent quench)", "setting": "300 nM azd0328", "result": 81.73, "unit": "%"},
      {"measurement": "YFP fluorescence quenching using TC-5619/Bradanicline (percent quench)", "setting": "300 nM brd (TC-5619/Bradanicline)", "result": "−10.61", "unit": "%"},
      {"measurement": "YFP fluorescence quenching using CNL001 (percent quench)", "setting": "1 uM CNL001, first column so headed", "result": 80.272, "unit": "%"},
      {"measurement": "YFP fluorescence quenching using CNL001 (percent quench)", "setting": "1 uM CNL001, second column so headed", "result": 79.432, "unit": "%"},
      {"measurement": "YFP fluorescence quenching (percent quench)", "setting": "1 uM CNL002", "result": 79.26, "unit": "%"},
      {"measurement": "YFP fluorescence quenching using ABT-126 (percent quench)", "setting": "1 uM abt (ABT-126)", "result": 72.28, "unit": "%"},
      {"measurement": "YFP fluorescence quenching using TC-5619/Bradanicline (percent quench)", "setting": "1 uM brd (TC-5619/Bradanicline)", "result": 3.82, "unit": "%"},
      {"measurement": "YFP fluorescence quenching using TC-6683 (percent quench)", "setting": "3 uM TC-6683", "result": "−14.17", "unit": "%"},
      {"measurement": "YFP fluorescence quenching (percent quench)", "setting": "10 uM ach (acetylcholine)", "result": "−3.19", "unit": "%"},
      {"measurement": "YFP fluorescence quenching (percent quench)", "setting": "30 uM CNL002", "result": 79.96, "unit": "%"},
      {"measurement": "YFP fluorescence quenching using TC-6683 (percent quench)", "setting": "30 uM TC-6683", "result": 1.86, "unit": "%"},
      {"measurement": "YFP fluorescence quenching using AZD-0328 (percent quench)", "setting": "30 uM azd0328", "result": 82.3, "unit": "%"},
      {"measurement": "YFP fluorescence quenching using TC-6683 (percent quench)", "setting": "100 uM TC-6683", "result": 43.61, "unit": "%"},
      {"measurement": "YFP fluorescence quenching (percent quench)", "setting": "100 uM ach (acetylcholine)", "result": 0.07, "unit": "%"},
      {"measurement": "YFP fluorescence quenching (percent quench)", "setting": "1 mM ach (acetylcholine)", "result": 71.7, "unit": "%"},
      {"measurement": "YFP fluorescence quenching (percent quench)", "setting": "3 mM ach (acetylcholine)", "result": 76.95, "unit": "%"},
      {"measurement": "YFP fluorescence quenching using Facinicline, 30 nM fac", "setting": "ligand Facinicline 30 nM", "result": 4.93},
      {"measurement": "YFP fluorescence quenching using Facinicline, 300 nM fac", "setting": "ligand Facinicline 300 nM", "result": 84.13},
      {"measurement": "YFP fluorescence quenching using Facinicline, 10 uM fac", "setting": "ligand Facinicline 10 uM", "result": 66.96},
      {"measurement": "YFP fluorescence quenching using Facinicline, 30 uM fac", "setting": "ligand Facinicline 30 uM", "result": 85.29},
      {"measurement": "YFP fluorescence quenching using TC-6987, 1 uM tc6987", "setting": "ligand TC-6987 1 uM", "result": "−9.74"},
      {"measurement": "YFP fluorescence quenching using TC-6987, 3 uM tc6987", "setting": "ligand TC-6987 3 uM", "result": "−14.04"},
      {"measurement": "YFP fluorescence quenching using TC-6987, 5 uM tc6987", "setting": "ligand TC-6987 5 uM", "result": "−0.95"},
      {"measurement": "YFP fluorescence quenching using TC-6987, 10 uM tc6987", "setting": "ligand TC-6987 10 uM", "result": "−7.41"},
      {"measurement": "YFP fluorescence quenching using TC-6987, 30 uM tc6987", "setting": "ligand TC-6987 30 uM", "result": "−16.12"},
      {"measurement": "YFP fluorescence quenching using TC-6987, 50 uM tc6987", "setting": "ligand TC-6987 50 uM", "result": "−12.79"},
      {"measurement": "YFP fluorescence quenching using TC-6987, 100 uM tc6987", "setting": "ligand TC-6987 100 uM", "result": "−11.77"},
      {"measurement": "YFP fluorescence quenching using TC-6987, 300 uM tc6987", "setting": "ligand TC-6987 300 uM", "result": "−19.68"},
      {"measurement": "YFP fluorescence quenching using TC-6987, 500 uM tc6987", "setting": "ligand TC-6987 500 uM", "result": "−17.02"},
      {"measurement": "YFP fluorescence quenching using Varenicline, 3 nM var", "setting": "first column", "result": "−3.433"},
      {"measurement": "YFP fluorescence quenching using Varenicline, 3 nM var", "setting": "second column", "result": "−5.737"},
      {"measurement": "YFP fluorescence quenching using Varenicline, 30 nM var", "setting": "first column", "result": "−5.319"},
      {"measurement": "YFP fluorescence quenching using Varenicline, 30 nM var", "setting": "second column", "result": "−6.175"},
      {"measurement": "YFP fluorescence quenching using Varenicline, 300 nM var", "setting": "first column", "result": "−4.135"},
      {"measurement": "YFP fluorescence quenching using Varenicline, 300 nM var", "setting": "second column", "result": "−8.614"},
      {"measurement": "YFP fluorescence quenching using Varenicline, 500 nM var", "setting": "first column", "result": "−6.062"},
      {"measurement": "YFP fluorescence quenching using Varenicline, 500 nM var", "setting": "second column", "result": "−6.125"},
      {"measurement": "YFP fluorescence quenching using Varenicline, 1 uM var", "setting": "first column", "result": "−14.134"},
      {"measurement": "YFP fluorescence quenching using Varenicline, 1 uM var", "setting": "second column", "result": "−15.373"}
    ]}
  ]
}
